Reference: publication PMC4840320 (Scientific Reports, 2016)
Substitutions are numbered along the chain they refer to. Numbers in names are those of the source.

B1: His-tagged ARL-3 (natural protein, C. elegans, UniProt O45379 1-184, looked up)
chain: MGLIDVLKSFKSPSGREIRILLLGLDNAGKTTILKQLSSEDVQHVTPTKGFNVKTVAAMGDIRLNVWDIGGQRSIRPYWSNYYENIDTLIFVIDSNDKKRFDEMNIELGELLDEEKLRKVPVLIFANKQDLVTAASSEEITRKLNLDLLRDRTWHIQACSALKNEGINDGITWVASNLKPASKK
notes: ARL-3, small GTPase of C. elegans, wild type; the methods speak of full-length and/or truncated cDNAs, and no truncation of ARL-3 is named; also called His-ARL-3; source: E. coli BL21, purified (His resin); not shown: His, N-terminal, kept
B2: ARL-3 dominant active (DA, Q72L) variant, recombinant (natural protein, C. elegans, UniProt O45379 1-184, looked up)
chain: B1 chain with Q72L
notes: ARL-3, C. elegans, dominant active variant Q72L; also called ARL-3 DA; source: E. coli BL21, purified (His resin or glutathione sepharose)
B3: ARL-3 dominant negative (DN, T31N) variant, recombinant (natural protein, C. elegans, UniProt O45379 1-184, looked up)
chain: B1 chain with T31N
notes: ARL-3, C. elegans, dominant negative variant T31N; also called ARL-3 DN; ARL-3DN (T31N); source: E. coli BL21, purified (His resin or glutathione sepharose)
B4: GST-fused full length ARL-13 (FL) (natural protein, C. elegans, UniProt H2L0N8-2 1-367, looked up)
chain: MTEKSWFETIFCCCCHRTPIIRREIKLGCFGIGSAGKTTFLKVLKGEDPRDLLRTNGFSTVKMEYDETFHLTIYDVGGDKGIRGIWSNYYAEVHGIIYVIDYSTDETFTESIEALHSLTSNPHVQKKPIFLLLNNQNNREFDDVEISNETKIQAGQHKIVLFSHFNKYNGYLDNIKSATLTVMARAKKDRNEYQEQFVRFIDSISEHYVELSEGVKTAELALRIRQEEAKEQRRLMQMKVEHDALKADVAGLELRNQPPVQPPIPPDPPSDPKSASVHIEESPPMSLASSTIPSDIIQSTPETGTPRDPVKISQTSTKPVSPESNSVKEEPTIILKDNYFLPPKAPGRQYSRIQRIQNVLNNRVVPK

Columns and labels:
[1] = biological target: T1, UNC-119, recombinant, as used in the GST pull-downs with ARL-3 and its variants (C. elegans, UniProt Q10658 1-219); assay: pull-down; GST pull-down: His-tagged protein incubated with GST-tagged protein immobilised on glutathione sepharose; 25 mM Tris-HCl pH 7.4, 150 mM NaCl, 0.5% Triton X-100, 1 mM DTT, 10% glycerol, 4 hours at 4 °C; six washes; anti-His immunoblot; settings: both partners purified
T1 construct: if it carried the His tag it is the same construct as m6 and ARL-3 was GST-fused; source: E. coli BL21, purified (His resin or glutathione sepharose)

[2] = biological target: B1; assay: cell-based or functional assay

T1 sequence (Q10658 whole entry, change not shown, the tested form may be a part): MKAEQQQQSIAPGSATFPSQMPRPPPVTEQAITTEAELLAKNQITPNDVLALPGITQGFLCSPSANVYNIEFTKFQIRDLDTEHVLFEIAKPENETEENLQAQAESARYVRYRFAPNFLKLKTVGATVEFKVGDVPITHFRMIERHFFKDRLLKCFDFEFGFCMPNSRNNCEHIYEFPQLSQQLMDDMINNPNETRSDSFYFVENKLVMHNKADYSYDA

| binding result [1] | mantGDP release from GDP-preloaded ARL-3 (in vitro GEF assay), ARL-13 from one-tenth molar (~2 fold) to a 1:1 molar ratio [2] [fold] | Binder |
| --- | --- | --- |
| binds |  | B1 |
| binds |  | B2 |
| binds |  | B3 |
|  | ~7 | B4 |
